According to patent US20150293119A1:
Values belong to the substance of their own block, whether it stands above or below them.

How the values were obtained:
[1] = target: recombinant human MMP-9/NGAL complex (human) (UniProt P14780); test: ELISA (Quantikine, R&D Systems)
[2] = target: human CNP-53 (AA 51-103) (human) (UniProt P23582); test: radioimmunoassay
[3] = target: human CNP-22 (AA 82-103) (human) (UniProt P23582); test: radioimmunoassay
[4] = target: ANP (Homo sapiens (Human)) (UniProt P01160); test: radioimmunoassay, competition with I125-labeled CNP
[5] = target: BNP (Homo sapiens (Human)) (UniProt P16860); test: as above
[6] = target: adrenomedullin (Homo sapiens (Human)) (UniProt P35318); test: as above
endothelin = test: as above
[7] = target: human CNP-53 (AA 51-103) (human) (UniProt P23582); test: as above

- cross-reactivity [1]: 0.3%
Substance: NGAL enzyme-linked immunoassay (Quantikine ELISA, R&D Systems) (tool reagent)

- cross-reactivity [2]: 59%
Substance: antibody that detects human CNP-22, non-equilibrium radioimmunoassay kit from Phoenix Pharmaceutical (Example 2) (tool reagent)

- cross-reactivity [3]: 100%
Substance: antibody that detects human CNP-53, non-equilibrium radioimmunoassay kit from Phoenix Pharmaceutical (tool reagent)

- cross-reactivity [4]: < 1%
- cross-reactivity [5]: < 1%
- cross-reactivity [6]: < 1%
- cross-reactivity (endothelin): < 1%
- cross-reactivity [7]: 97%
Substance: antibody to human CNP-22 of the non-equilibrium radioimmunoassay kit from Phoenix Pharmaceutical (Example 1) (tool reagent)
